Results on 1 substance are retold here after publication PMC7563181.

In test [1] the target is membrane-bound GFP (pHR_EGFPligand).
Test [2] has the same target. The source holds these as a separate data set.
Test [3] shares this target. The source holds these as a separate data set.
Test [4] shares this target. This is another data set of the same source.
For test [5] the target is unchanged. The source holds these as a separate data set.
The target is the same in test [6]. The source holds these as a separate data set.
For test [7] the target is unchanged. This is another data set of the same source.

In test [1], “LaG17_synNotch_TetRVP64 (synNotch receptor against GFP with a tTA intracellular domain)” gave a % dsRed-Express-positive cells at the first sort of the transduced bulk receiver population after activation with antigen-expressing cells (flow cytometry) of 10.3%. In test [2], this substance came in with a % Activation in Bulk Population (dsRed-Express, 60 min, sender:receiver 1:1) of 31.3% and a % Activation in Clonal Cell Lines (dsRed-Express, 60 min, sender:receiver 1:1) of 73.5%. In test [3], this substance displayed an Overall efficiency of indel formation at the CXCR4 locus (TIDE) after activation of receiver cells by GFP sender cells (1:1, 60 min), Experiment 1 of 34.5%; an Overall efficiency of indel formation at the CXCR4 locus (TIDE) after activation of receiver cells by GFP sender cells (1:1, 60 min), Experiment 2 of 41.3%; an Overall efficiency of indel formation at the CXCR4 locus (TIDE) after activation of receiver cells by GFP sender cells (1:1, 60 min), Experiment 3 of 45.4%. In test [4], the Indel formation frequency at the CXCR4 locus (TIDE) after activation by GFP sender cells, receiver cells kept in low FBS (G1 arrest) turned out to be 37.4%; the Indel formation frequency at the CXCR4 locus (TIDE) after activation by GFP sender cells, receiver cells kept without FBS (G1 arrest) turned out to be 31.4%; the Indel formation frequency at the CXCR4 locus (TIDE) after activation by GFP sender cells, receiver cells treated with nocodazole (G2/M arrest) stood at 34.4%. Also, in test [5], the % dsRed-Express-positive receiver cells after co-culture with antigen-expressing sender cells at three sender-receiver ratios (5:1, 1:1, 1:5), flow cytometry after 48 h; 7.6% to 40.1% was found to be 40.1%. Moreover, the % dsRed-Express-positive receiver cells after 10, 30, 60, 120 and 180 min of contact with antigen-expressing sender cells (ratio 1:1), flow cytometry 48 h later; 7.3% to 37.3% in test [6] was 37.3%. For the same substance, in test [7], the synNotch-mediated fluorophore expression, bulk population before clonal expansion (differs from Table 2) amounted to 34.8% and the synNotch-mediated fluorophore expression, clonal cell line (differs from Table 2) was 73.6%.
